Common to all, as to assay: ITC
Common to all, as to details: ITC: 10 mM HEPES, 150 mM NaCl, pH 7.5, 25 C, 100 uM DNA into 10 uM CsoR tetramer; EMSA: same buffer, room temperature, 30 min, 6% PAGE in TBE; SEC: same buffer

Data set [1] addresses CsoRSl R129A (Streptomyces lividans 1326) (UniProt D6EK73).
The target of data set [2] is CsoRSl R132A (Streptomyces lividans 1326) (UniProt D6EK73).
Data set [3] has as its target CsoRSl R54A (Streptomyces lividans 1326) (UniProt D6EK73).

Here are results for 1 sequence from paper PMC3902906.

For “CGGACAAATACCCCTGGTGGGTATATATGG (double strand) [csoR-EXT]”, the Kd in data set [1] came out at 134 nM; in data set [2], 309 nM; in data set [3] it was 2060 nM.

The Kd is the equilibrium constant for the complex coming apart.
